{"source": "patent US20100203044A1", "about": "“DR6 ANTAGONISTS AND USES THEREOF IN TREATING NEUROLOGICAL DISORDERS” (priority 2006, published 2010)", "molecules": {"B1": {"name": "DR6-AP: mouse DR6 ectodomain fused to human placental alkaline phosphatase (protein)", "chain": "QPEQKTLSLPGTYRHVDRTTGQVLTCDKCPAGTYVSEHCTNMSLRVCSSCPAGTFTRHENGIERCHDCSQPCPWPMIERLPCAALTDRECICPPGMYQSNGTCAPHTVCPVGWGVRKKGTENEDVRCKQCARGTFSDVPSSVMKCKAHTDCLGQNLEVVKPGTKETDNVCGMRLFFSSTNPPSSGTVTFSHPEHMESHDVPSSTYEPQGMNSTDSNSTASVRTKVPSGIEEGTVPDNTSSTSGKEGTNRTLPNPPQVTHQQAPHHRHILKLLPSSMEATGEKSSTAIKAPKRGHPRQNAHKHFDINEHIIPVEEENPDFWNREAAEALGAAKKLQPAQTAAKNLIIFLGDGMGVSTVTAARILKGQKKDKLGPEIPLAMDRFPYVALSKTYNVDKHVPDSGATATAYLCGVKGNFQTIGLSAAARFNQCNTTRGNEVISVMNRAKKAGKSVGVVTTTRVQHASPAGTYAHTVNRNWYSDADVPASARQEGCQDIATQLISNMDIDVILGGGRKYMFRMGTPDPEYPDDYSQGGTRLDGKNLVQEWLAKRQGARYVWNRTELMQASLDPSVTHLMGLFEPGDMKYEIHRDSTLDPSLMEMTEAALRLLSRNPRGFFLFVEGGRIDHGHHESRAYRALTETIMFDDAIERAGQLTSEEDTLSLVTADHSHVFSFGGYPLRGSSIFGLAPGKARDRKAYTVLLYGNGPGYVLKDGARPDVTESESGSPEYRQQSAVPLDEETHAGEDVAVFARGPQAHLVHGVQEQTFIAHVMAFAACLEPYTACDLAPPAGTTDAAHPG"}}, "key": {"DR6 receptor": {"target": "T1, DR6 receptor (Homo sapiens, UniProt O75509)", "T1 construct": "expressed in transfected cells; host or cells: COS-1", "T1 sequence (O75509 42-655)": "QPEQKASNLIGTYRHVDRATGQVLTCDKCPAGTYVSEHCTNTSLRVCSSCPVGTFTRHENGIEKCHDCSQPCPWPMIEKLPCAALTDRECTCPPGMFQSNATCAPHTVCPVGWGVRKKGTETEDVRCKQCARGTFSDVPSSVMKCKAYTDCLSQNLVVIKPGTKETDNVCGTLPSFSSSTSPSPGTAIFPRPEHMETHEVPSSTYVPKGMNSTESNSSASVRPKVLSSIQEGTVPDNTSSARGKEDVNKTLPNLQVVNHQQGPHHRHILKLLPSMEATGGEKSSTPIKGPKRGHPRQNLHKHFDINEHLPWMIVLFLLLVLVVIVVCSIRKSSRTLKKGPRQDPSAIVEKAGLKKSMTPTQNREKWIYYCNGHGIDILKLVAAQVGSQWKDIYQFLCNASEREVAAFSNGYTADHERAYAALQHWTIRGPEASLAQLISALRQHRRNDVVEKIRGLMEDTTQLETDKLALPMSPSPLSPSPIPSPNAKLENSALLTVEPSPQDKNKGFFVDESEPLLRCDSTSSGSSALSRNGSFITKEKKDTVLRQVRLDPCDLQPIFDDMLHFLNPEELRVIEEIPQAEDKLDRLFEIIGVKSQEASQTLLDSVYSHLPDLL", "assay": "cell-based AP binding assay, DR6 receptor expressing COS-1 cells", "settings": "same conditions as APP binding", "protocol": "(§1) For the APP AP binding assay, COS-1 cells cultured in DMEM/10% FBS (Gibco) medium in 6-well culture dishes were transfected with 2 microgram of APP expressing vector per well using FuGene transfection reagent (Roche) according to the manufacturer protocol. Two days post-transfection, cells were washed twice with the binding buffer (HBSS, Gibco Cat. No. 14175-095, with 0.2% BSA, 0.1% NaN3, 5 mM CaCl2, 1 mM MgCl2, 20 mM HEPES, pH=7.0). An AP binding assay was then carried out by making a 1:1 mixture of DR6-AP conditioned medium and the binding buffer, which was applied directly to APP over-expressing COS-1 cells and incubated for 90 minutes at room temperature. Following the incubation, the unbound DR6-AP proteins were washed away by rinsing COS-1 cells five times with the binding buffer. Cells were then fixed with 3.7% formaldehyde diluted in PBS, for 12 minutes at room temperature. The remaining formaldehyde was removed by rinsing cells 3 times with HBS buffer (20 mM HEPES pH=7.0, 150 mM NaCl). Endogenous AP activity was blocked by heat inactivation at 65° C. in HBS buffer for 30 minutes. COS-1 cells were then rinsed three times in the AP reaction buffer (100 mM TRIS pH=9.5, 100 mM NaCl, 50 mM MgCl2). […]"}, "APP": {"target": "T2, APP (Homo sapiens, UniProt P05067)", "T2 construct": "expressed in transfected cells; host or cells: COS-1", "T2 sequence (P05067 18-770)": "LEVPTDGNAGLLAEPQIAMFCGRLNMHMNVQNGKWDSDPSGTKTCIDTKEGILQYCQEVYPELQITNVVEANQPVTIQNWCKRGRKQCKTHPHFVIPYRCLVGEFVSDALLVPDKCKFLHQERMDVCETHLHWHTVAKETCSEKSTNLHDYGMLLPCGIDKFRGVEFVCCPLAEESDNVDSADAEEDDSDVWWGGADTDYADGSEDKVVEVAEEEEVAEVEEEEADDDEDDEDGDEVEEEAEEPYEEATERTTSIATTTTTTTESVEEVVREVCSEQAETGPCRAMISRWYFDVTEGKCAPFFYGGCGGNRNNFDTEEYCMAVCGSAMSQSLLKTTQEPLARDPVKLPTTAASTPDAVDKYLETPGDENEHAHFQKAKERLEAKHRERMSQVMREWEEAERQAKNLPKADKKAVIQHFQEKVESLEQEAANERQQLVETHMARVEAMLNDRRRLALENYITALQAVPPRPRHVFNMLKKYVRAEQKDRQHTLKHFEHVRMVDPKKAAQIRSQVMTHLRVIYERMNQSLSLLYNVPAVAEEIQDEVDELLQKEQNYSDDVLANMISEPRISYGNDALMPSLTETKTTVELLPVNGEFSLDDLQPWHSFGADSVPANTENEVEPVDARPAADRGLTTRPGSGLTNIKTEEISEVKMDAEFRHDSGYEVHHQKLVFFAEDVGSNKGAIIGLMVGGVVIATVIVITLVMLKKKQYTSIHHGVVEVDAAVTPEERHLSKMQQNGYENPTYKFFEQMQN", "assay": "cell-based AP binding assay, APP expressing COS-1 cells", "settings": "DR6-AP conditioned medium 1:1 with binding buffer, 90 minutes", "protocol": "The materials and methods used to generate the data shown in this figure are as follows. To test whether APP directly interacts with DR6 extracellular domain, a cell-based AP binding assay was carried out (FIG. 14B). To generate DR6 ectodomain-AP fusion protein (DR6-AP), COS-1 cells cultured in DMEM/10% FBS (Gibco) medium were transfected with 15 microgram of DR6-AP fusion expression construct using FuGene transfection reagent (Roche) according to the manufacturer protocol. Twelve hours post-transfection, COS-1 cell medium was changed to OPTI-MEM (Invitrogen). Forty-eight hours post-transfection, COS-1 cell conditioned medium containing DR6-AP proteins was collected and filtered.\nThe amount of DR6-AP proteins in the medium was quantified according to the following procedure. 100 microliters of 2×AP buffer (prepared by adding 100 mg Para-nitrophenyl phosphate (Sigma) and 15 microliter of 1M MgCl2 to 15 ml 2M diethanolamine pH 9.8) was mixed with equal volume of transfected COS cell conditioned medium or control conditioned medium from untransfected COS-1 cells. […] The volume of reaction was then adjusted by adding 800 microliters of distilled water and the O.D. was measured at 405 nm absorbance wavelength. The concentration in nM was calculated according to the formula (for 100 microliter): C (nM)=O.D.×100×(60/developing time)/30. […]"}, "p75NTR": {"target": "T3, p75NTR (Homo sapiens, UniProt P08138)", "T3 construct": "expressed in transfected cells; host or cells: COS-1", "T3 sequence (P08138 29-427)": "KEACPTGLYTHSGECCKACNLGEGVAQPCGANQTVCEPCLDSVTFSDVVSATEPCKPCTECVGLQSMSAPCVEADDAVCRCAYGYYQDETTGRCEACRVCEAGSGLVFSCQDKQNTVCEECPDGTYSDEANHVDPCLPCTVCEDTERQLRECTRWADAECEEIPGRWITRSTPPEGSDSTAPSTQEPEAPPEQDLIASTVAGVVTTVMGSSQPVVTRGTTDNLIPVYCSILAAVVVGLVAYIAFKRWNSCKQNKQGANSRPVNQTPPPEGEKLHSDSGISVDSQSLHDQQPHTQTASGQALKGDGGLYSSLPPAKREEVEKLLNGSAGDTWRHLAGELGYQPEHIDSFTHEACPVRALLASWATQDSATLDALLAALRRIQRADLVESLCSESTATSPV", "assay": "cell-based AP binding assay, p75NTR expressing COS-1 cells", "settings": "same conditions as APP binding", "protocol": "as §1"}}, "note": "Entries after “also recorded” stand apart in the source; their conditions may differ.", "data": [{"molecule": "B1", "values": [{"measurement": "binding of DR6 ectodomain to DR6 receptor expressing cells", "setting": "DR6 receptor", "value": "does NOT bind; also recorded: no specific binding"}, {"measurement": "binding of DR6 ectodomain to APP expressing cells", "setting": "APP", "value": "binds APP expressed by cultured cells"}, {"measurement": "binding of DR6 ectodomain to p75NTR expressing cells", "setting": "p75NTR", "value": "does NOT bind; also recorded: no specific binding"}]}]}
